Results: the Human Domainome abundance scans (Beltran et al. 2025)
± gives the uncertainty stated by the source.

B1: Intersectin-1, residues 909 to 971; numbered along this chain, Q15811 (parent)
chain: QGEKVEGLQAQALYPWRAKKDNHLNFNKNDVITVLEQQDMWWFGEVQGQKGWFPKSYVKLISG

Variants of: B1
Test: abundance fitness (aPCA) (normalised: wild type 0, dead -1); higher = more abundant; growth selection in yeast, the domain comes from the species named
Conditions: Homo sapiens

Row | Variant | abundance fitness
1 | QGEKVEGLQAQALYPWRAKKDNHLNFNKNDVITVLEIQDMWWFGEVQGQKGWFPKSYVKLISG [Q37I] | -0.286 ± 0.3
2 | QGEKVEGLQAQALYPWRAKKDNHLNFNKNDVITVLESQDMWWFGEVQGQKGWFPKSYVKLISG [Q37S] | -0.294 ± 0.14
3 | QGEKVEGLQAQALYPWRAKKDNHLNFNKNDVITVLEHQDMWWFGEVQGQKGWFPKSYVKLISG [Q37H] | -0.274 ± 0.31
4 | QGEKVEGLQAQALYPWRAKKDNHLNFNKNDVITVLECQDMWWFGEVQGQKGWFPKSYVKLISG [Q37C] | -0.127 ± 0.17
5 | QGEKVEGLQAQALYPWRAKKDNHLNFNKNDVITVLEVQDMWWFGEVQGQKGWFPKSYVKLISG [Q37V] | -0.588 ± 0.24
6 | QGEKVEGLQAQALYPWRAKKDNHLNFNKNDVITVLEGQDMWWFGEVQGQKGWFPKSYVKLISG [Q37G] | -0.085 ± 0.1
7 | QGEKVEGLQAQALYPWRAKKDNHLNFNKNDVITVLEWQDMWWFGEVQGQKGWFPKSYVKLISG [Q37W] | -0.162 ± 0.16
8 | QGEKVEGLQAQALYPWRAKKDNHLNFNKNDVITVLENQDMWWFGEVQGQKGWFPKSYVKLISG [Q37N] | -0.279 ± 0.22
9 | QGEKVEGLQAQALYPWRAKKDNHLNFNKNDVITVLETQDMWWFGEVQGQKGWFPKSYVKLISG [Q37T] | -0.052 ± 0.18
10 | QGEKVEGLQAQALYPWRAKKDNHLNFNKNDVITVLEFQDMWWFGEVQGQKGWFPKSYVKLISG [Q37F] | -0.078 ± 0.46
11 | QGEKVEGLQAQALYPWRAKKDNHLNFNKNDVITVLEAQDMWWFGEVQGQKGWFPKSYVKLISG [Q37A] | -0.036 ± 0.21
12 | QGEKVEGLQAQALYPWRAKKDNHLNFNKNDVITVLEKQDMWWFGEVQGQKGWFPKSYVKLISG [Q37K] | 0.149 ± 0.28
13 | QGEKVEGLQAQALYPWRAKKDNHLNFNKNDVITVLEEQDMWWFGEVQGQKGWFPKSYVKLISG [Q37E] | -0.159 ± 0.29
14 | QGEKVEGLQAQALYPWRAKKDNHLNFNKNDVITVLERQDMWWFGEVQGQKGWFPKSYVKLISG [Q37R] | -0.06 ± 0.11
15 | QGEKVEGLQAQALYPWRAKKDNHLNFNKNDVITVLEPQDMWWFGEVQGQKGWFPKSYVKLISG [Q37P] | -0.289 ± 0.18
16 | QGEKVEGLQAQALYPWRAKKDNHLNFNKNDVITVLEMQDMWWFGEVQGQKGWFPKSYVKLISG [Q37M] | 0.323 ± 0.2
17 | QGEKVEGLQAQALYPWRAKKDNHLNFNKNDVITTLEQQDMWWFGEVQGQKGWFPKSYVKLISG [V34T] | -0.711 ± 0.22
18 | QGEKVEGLQAQALYPWRAKKDNHLNFNKNDVITGLEQQDMWWFGEVQGQKGWFPKSYVKLISG [V34G] | -0.455 ± 0.087
19 | QGEKVEGLQAQALYPWRAKKDNHLNFNKNDVITLLEQQDMWWFGEVQGQKGWFPKSYVKLISG [V34L] | -0.343 ± 0.083
20 | QGEKVEGLQAQALYPWRAKKDNHLNFNKNDVITYLEQQDMWWFGEVQGQKGWFPKSYVKLISG [V34Y] | -0.856 ± 0.44
21 | QGEKVEGLQAQALYPWRAKKDNHLNFNKNDVITMLEQQDMWWFGEVQGQKGWFPKSYVKLISG [V34M] | -0.772 ± 0.3

Row | Variant | abundance fitness
22 | QGEKVEGLQAQALYPWRAKKDNHLNFNKNDVITSLEQQDMWWFGEVQGQKGWFPKSYVKLISG [V34S] | -0.424 ± 0.26
23 | QGEKVEGLQAQALYPWRAKKDNHLNFNKNDVITILEQQDMWWFGEVQGQKGWFPKSYVKLISG [V34I] | 0.221 ± 0.16
24 | QGEKVEGLQAQALYPWRAKKDNHLNFNKNDVITELEQQDMWWFGEVQGQKGWFPKSYVKLISG [V34E] | -0.549 ± 0.19
25 | QGEKVEGLQAQALYPWRAKKDNHLNFNKNDVITWLEQQDMWWFGEVQGQKGWFPKSYVKLISG [V34W] | -0.524 ± 0.15
26 | QGEKVEGLQAQALYPWRAKKDNHLNFNKNDVITPLEQQDMWWFGEVQGQKGWFPKSYVKLISG [V34P] | -0.646 ± 0.19
27 | QGEKVEGLQAQALYPWRAKKDNHLNFNKNDVITRLEQQDMWWFGEVQGQKGWFPKSYVKLISG [V34R] | -0.776 ± 0.12
28 | QGEKVEGLQAQALYPWRAKKDNHLNFNKNDVITCLEQQDMWWFGEVQGQKGWFPKSYVKLISG [V34C] | -0.427 ± 0.28
29 | QGEKVEGLQAQALYPWRAKKDNHLNFNKNDVIYVLEQQDMWWFGEVQGQKGWFPKSYVKLISG [T33Y] | -0.016 ± 0.29
30 | QGEKVEGLQAQALYPWRAKKDNHLNFNKNDVIWVLEQQDMWWFGEVQGQKGWFPKSYVKLISG [T33W] | -0.175 ± 0.072
31 | QGEKVEGLQAQALYPWRAKKDNHLNFNKNDVIVVLEQQDMWWFGEVQGQKGWFPKSYVKLISG [T33V] | -0.113 ± 0.46
32 | QGEKVEGLQAQALYPWRAKKDNHLNFNKNDVISVLEQQDMWWFGEVQGQKGWFPKSYVKLISG [T33S] | -0.104 ± 0.074
33 | QGEKVEGLQAQALYPWRAKKDNHLNFNKNDVITVLEQQKMWWFGEVQGQKGWFPKSYVKLISG [D39K] | -0.268 ± 0.13
34 | QGEKVEGLQAQALYPWRAKKDNHLNFNKNDVITVLEQQPMWWFGEVQGQKGWFPKSYVKLISG [D39P] | -0.297 ± 0.15
35 | QGEKVEGLQAQALYPWRAKKDNHLNFNKNDVITVLEQQHMWWFGEVQGQKGWFPKSYVKLISG [D39H] | -0.454 ± 0.39
36 | QGEKVEGLQAQALYPWRAKKDNHLNFNKNDVITVLEQQGMWWFGEVQGQKGWFPKSYVKLISG [D39G] | -0.014 ± 0.057
37 | QGEKVEGLQAQALYPWRAKKDNHLNFNKNDVITVLEQQMMWWFGEVQGQKGWFPKSYVKLISG [D39M] | -0.221 ± 0.18
38 | QGEKVEGLQAQALYPWRAKKDNHLNFNKNDVITVLEQQCMWWFGEVQGQKGWFPKSYVKLISG [D39C] | -0.262 ± 0.24
39 | QGEKVEGLQAQALYPWRAKKDNHLNFNKNDVITVLEQQQMWWFGEVQGQKGWFPKSYVKLISG [D39Q] | -0.328 ± 0.16
40 | QGEKVEGLQAQALYPWRAKKDNHLNFNKNDVITVLEQQAMWWFGEVQGQKGWFPKSYVKLISG [D39A] | -0.014 ± 0.093
41 | QGEKVEGLQAQALYPWRAKKDNHLNFNKNDVITVLEQQEMWWFGEVQGQKGWFPKSYVKLISG [D39E] | -0.071 ± 0.15
42 | QGEKVEGLQAQALYPWRAKKDNHLNFNKNDVITVLEQQNMWWFGEVQGQKGWFPKSYVKLISG [D39N] | -0.215 ± 0.15
